{"source": "paper PMC7515736", "about": "“Genome-wide binding of [sequence]3 and AGAMOUS complexes determined by sequential DNA-affinity purification sequencing”", "key": {"[1]": {"molecular_target": "SEP3Δtet (SEP3 splice variant);AG (AGAMOUS) (Arabidopsis thaliana;Arabidopsis …, UniProt F4I972;P17839 1-237;1-252, del161-174|)", "sequence (P17839 other isoform, or with tags, fused parts or gaps del161-174| | mutant, chain 1 of 2)": "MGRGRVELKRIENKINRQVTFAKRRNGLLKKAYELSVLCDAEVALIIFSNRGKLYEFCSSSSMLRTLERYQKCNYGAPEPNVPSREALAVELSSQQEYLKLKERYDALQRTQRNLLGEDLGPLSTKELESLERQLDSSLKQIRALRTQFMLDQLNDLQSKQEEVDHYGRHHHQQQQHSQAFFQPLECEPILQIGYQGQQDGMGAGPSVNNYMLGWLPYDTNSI", "sequence (P17839 whole entry, stated change not applied, chain 2 of 2, canonical isoform)": "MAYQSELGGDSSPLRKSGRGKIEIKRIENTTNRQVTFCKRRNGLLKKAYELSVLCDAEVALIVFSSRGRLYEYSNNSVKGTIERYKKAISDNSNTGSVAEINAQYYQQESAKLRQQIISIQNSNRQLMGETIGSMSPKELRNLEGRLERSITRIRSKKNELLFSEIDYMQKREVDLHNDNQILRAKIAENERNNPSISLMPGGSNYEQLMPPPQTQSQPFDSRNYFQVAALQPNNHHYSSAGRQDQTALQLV", "assay": "EMSA; dimer; EMSA as in the authors' ref. 20 (buffer, salt, pH, temperature not given); Cy5 probes; unpurified wheat germ TnT proteins", "conditions": "protein: ivt;ivt; tags: C-terminal 3xFLAG;C-terminal 5xMyc; copies: 1;1; label: Cy5; blunt"}, "SEP3 (…3);AG (AGAMOUS)": {"molecular_target": "SEP3 (…3);AG (AGAMOUS) (Arabidopsis thaliana;Arabidopsis …, UniProt O22456;P17839 1-251;1-252, |)", "sequence (O22456 whole entry, chain 1 of 2)": "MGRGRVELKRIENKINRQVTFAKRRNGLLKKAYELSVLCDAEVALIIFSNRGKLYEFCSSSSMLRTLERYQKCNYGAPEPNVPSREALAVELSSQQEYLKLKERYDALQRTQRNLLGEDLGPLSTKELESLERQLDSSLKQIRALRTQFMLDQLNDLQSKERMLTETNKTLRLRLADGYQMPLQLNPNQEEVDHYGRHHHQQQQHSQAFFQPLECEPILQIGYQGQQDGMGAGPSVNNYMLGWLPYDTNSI", "sequence (P17839 whole entry, chain 2 of 2)": "as the sequence (P17839 whole entry, stated change not applied, chain 2 of 2, canonical isoform) above", "assay": "EMSA; tetramer; EMSA as in the authors' ref. 20 (buffer, salt, pH, temperature not given); Cy5 probes; unpurified wheat germ TnT proteins", "conditions": "protein: ivt;ivt; tags: C-terminal 3xFLAG;C-terminal 5xMyc; copies: 1;1; label: Cy5; blunt"}}, "data": [{"binder": "KNU -10 (96 bp) (dsDNA) DNA 1: GAAAGAGGGTAAGAGAAACATAGAAACCTTCCATGTTTGGCAATTTCATCTTGGACTCTCTCTTGTCTTCTTTGTGCATCACAAGAACAACAAATA DNA 2: TATTTGTTGTTCTTGTGATGCACAAAGAAGACAAGAGAGAGTCCAAGATGAAATTGCCAAACATGGAAGGTTTCTATGTTTCTCTTACCCTCTTTC", "values": [{"measurement": "binding result", "setting": "[1]", "result": "binds"}, {"measurement": "binding result", "setting": "SEP3 (…3);AG (AGAMOUS)", "result": "binds"}]}, {"binder": "KNU +5 (96 bp) (dsDNA) DNA 1: AGAGAAACATAGAAACCTTCCATGTTTGGCAATTTCATCTTGGAAGTCAGCTTGATTCACTCTCTCTTGTCTTCTTTGTGCATCACAAGAACAACA DNA 2: TGTTGTTCTTGTGATGCACAAAGAAGACAAGAGAGAGTGAATCAAGCTGACTTCCAAGATGAAATTGCCAAACATGGAAGGTTTCTATGTTTCTCT", "values": [{"measurement": "binding result", "setting": "[1]", "result": "binds"}]}, {"binder": "KNU +10 (96 bp) (dsDNA) DNA 1: AAACATAGAAACCTTCCATGTTTGGCAATTTCATCTTGGAAGTCAGTAGCTCTTGATTCACTCTCTCTTGTCTTCTTTGTGCATCACAAGAACAAC DNA 2: GTTGTTCTTGTGATGCACAAAGAAGACAAGAGAGAGTGAATCAAGAGCTACTGACTTCCAAGATGAAATTGCCAAACATGGAAGGTTTCTATGTTT", "values": [{"measurement": "binding result", "setting": "[1]", "result": "binds"}, {"measurement": "binding result", "setting": "SEP3 (…3);AG (AGAMOUS)", "result": "binds"}]}, {"binder": "KNU +10 probe (106 bp) (dsDNA) DNA 1: GGTAAGAGAAACATAGAAACCTTCCATGTTTGGCAATTTCATCTTGGAAGTCAGTAGCTCTTGATTCACTCTCTCTTGTCTTCTTTGTGCATCACAAGAACAACAA DNA 2: TTGTTGTTCTTGTGATGCACAAAGAAGACAAGAGAGAGTGAATCAAGAGCTACTGACTTCCAAGATGAAATTGCCAAACATGGAAGGTTTCTATGTTTCTCTTACC", "values": [{"measurement": "binding result", "setting": "SEP3 (…3);AG (AGAMOUS)", "result": "binds"}]}, {"binder": "KNU WT (dsDNA) DNA 1: GGTAAGAGAAACATAGAAACCTTCCATGTTTGGCAATTTCATCTTGGAACTTGATTCACTCTCTCTTGTCTTCTTTGTGCATCACAAGAACAACAA DNA 2: TTGTTGTTCTTGTGATGCACAAAGAAGACAAGAGAGAGTGAATCAAGTTCCAAGATGAAATTGCCAAACATGGAAGGTTTCTATGTTTCTCTTACC", "values": [{"measurement": "binding result", "setting": "[1]", "result": "binds"}, {"measurement": "binding result", "setting": "SEP3 (…3);AG (AGAMOUS)", "result": "binds"}]}, {"binder": "KNU -10 probe (86 bp) (dsDNA) DNA 1: GGTAAGAGAAACATAGAAACCTTCCATGTTTGGCAATTTCATCTTGGACTCTCTCTTGTCTTCTTTGTGCATCACAAGAACAACAA DNA 2: TTGTTGTTCTTGTGATGCACAAAGAAGACAAGAGAGAGTCCAAGATGAAATTGCCAAACATGGAAGGTTTCTATGTTTCTCTTACC", "values": [{"measurement": "binding result", "setting": "SEP3 (…3);AG (AGAMOUS)", "result": "binds"}]}, {"binder": "KNU -5 (96 bp) (dsDNA) DNA 1: AGAGGGTAAGAGAAACATAGAAACCTTCCATGTTTGGCAATTTCATCTTGGAACTTACTCTCTCTTGTCTTCTTTGTGCATCACAAGAACAACAAA DNA 2: TTTGTTGTTCTTGTGATGCACAAAGAAGACAAGAGAGAGTAAGTTCCAAGATGAAATTGCCAAACATGGAAGGTTTCTATGTTTCTCTTACCCTCT", "values": [{"measurement": "binding result", "setting": "[1]", "result": "binds"}]}]}
